Measurements published in the DeepSol protein solubility set.

Experiment: soluble on expression in E. coli; label from the status in PepcDB or PDB records

Row | Sequence | soluble on expression in E. coli
1 | MDAFSGIAGPLGRASELHRYEGNQTVVFCAGGVGLPPVYPIMREHLRLGNHVTLISGFRAKEFLFWTGDDERVGKLKKEFGDQLSLIYTTNDGSYGVKGFVTGPLEEMMKANQEGKGRSIAEVIAIGPPLMMRAVSDLTKPYGVKTVASLNSLEHHHHHH | soluble
2 | MDALVEDDICILNHEKAHKRDTVTPVSIYSGDESVASHFALVTAYEDIKKRLKDSEKENSLLKKRIRFLEEKLIARFEEETSSVGREQVNKAYHAYREVCIDRDNLKSKLDKMNKDNSESLKVLNEQLQSKEVELLQLRTEVETQQVMRNLNPPSSNWEVEKLSCDLKIHGLEQELELMRKECSDLKIELQKAKQTDPYQEDNLKSRDLQKLSISSDNMQHAYWELKREMSNLHLVTQVQAELLRKLKTSTAIKKGKSLFTGNH | soluble
3 | MDAPKAGYAFEYLIETLNDSSHKKFFDVSKLGTKYDVLPYSIRVLLEAAVRNCDGFLMKKEDVMNILDWKTKQSNVEVPFFPARVLLQDFTGIPAMVDFAAMREAVKTLGGDPEKVHPACPTDLTVDHSLQIDFSKCAIQNAPNPGGGDLQKAGKLSPLKVQPKKLPCRGQTTCRGSCDSGELGRNSGTFSSQIENTPILCPFHLQPVPEPETVLKNQEVEFGRNRERLQFFKWSSRVFKNVAVIPPGTGMAHQINLEYLSRVVFEEKDLLFPDSVVGTDSHITMVNGLGILGWGVGGIETEAVMLGLPVSLTLPEVVGCELTGSSNPFVTSIDVVLGITKHLRQVGVAGKFVEFFGSGVSQLSIVDRTTIANMCPEYGAILSFFPVDNVTLKHLEHTGFSKAKLESMETYLKAVKLFRNDQNSSGEPEYSQVIQINLNSIVPSVSGPKRPQDRVAVTDMKSDFQACLNEKVGFKGFQIAAEKQKDIVSIHYEGSEYKLSHGSVVIAAVISCTNNCNPSVMLAAGLLAKKAVEAGLRVKPYIRTSLSPGSGMVTHYLSSSGVLPYLSKLGFEIVGYGCSTCVGNTAPLSDAVLNAVKQGDLVTCGILSGNKNFEGRLCDCVRANYLASPPLVVAYAIAGTVNIDFQTEPLGTDPTGKNIYLHDIWPSREEVHRVEEEHVILSMFKALKDKIEMGNKRWNSLEAPDSVLFPWDLKSTYIRCPSFFDKLTKEPIALQAIENAHVLLYLGDSVTTDHISPAGSIARNSAAAKYLTNRGLTPREFNSYGARRGNDAVMTRGTFANIKLFNKFIGKPAPKTIHFPSGQTLDVFEAAELYQKEGIPLIILAGKKYGSGNSRDWAAKGPYLLGVKAVLAESYEKIHKDHLIGIGIAPLQFLPGENADSLGLSGRETFSLTFPEELSPGITLNIQTSTGKVFSVIASFEDDVEITLYKHGGLLNFVARKFS | soluble
4 | MDARPVHPAFQVFTDALRQRFGEALDAVVLYGSCLHTSDLTEGIADFYVLVSDYRLAYSGRLLAGLNAWLPPNVFYLEVPAAAGVMRAKYAVISTADFERGARQWFHPYIWARFAQPARLLYARDDQTGKRVHTAQASAVLKFISTTLPVLESGPSDLEMIWASGLMLTYAAELRAEREARARHLVRIDPEIYSRLTAAAMPALIPLLSLQADGRYHIGPITPLKRLSARIHWRLRRWQGRVLSVLRLSKATMTFRDCLDYAAWKIERHTGIKVEITPMLRRHPILWGYKVMWQLLRRGVLRLEHHHHHH | soluble
5 | MDAVDRGVYFDEDFHVRILDVDKYNASKSLQDNTNVFINNIQNMQGLVDKYVSAIDQQVERLEAEKLKAIGLRNRVAALSEERKRKQKEQERMLAEKQEELERLQMEEQSLIKVKGEQELMIQKLSDSSSGAAYV | not soluble
6 | MDAYPEAEAPPQSIVELVPVLIAVTDGGLRVLTVAQGMLLPNGPLSPLRNSLQAGVKLWVAKQTSQPMGYVEQLYTFVDTHRRNEHGMPVLYVSYLGLVREAADSILHPDAKWQDCYGYFPWEDLRTDGGQRDAVVGRLRIWANSADTEEVRQKRLKRIHLCWGVEPENWSEEYVLQRYEMLYESGLIAEAAEPQANFDFALTGQPMRHDHRRVLATALSRLRAKIKYRPVIFELMPPEFTLLQLQNSVEAISGRLLHKQNFRRQIQQQNLIEPSDTGVSGSKGRPAQLCRFRDDVLPDRLISDIGLPLGSR | not soluble
7 | MDCNGSGGSSDDDKPLHHDGGVRMKFFRSVGEVFGYSPFRSLAQHARMCGRAVGLLQQQFEALRRGNYEEVEELREEIDELEHHADQIKEEIRGNVTKSLMLPVDRHDLLEFLKVQDDILNNCEHVGHMVTFRKVSAPEDVWDEFLVLLSKLMEIVNNYEEMVERIMQLVETSFSKKEVNRALEYVPIIEQLEHECDLIQIGLHTKLFNLENSNPLDIQLMVTWVVHLGYVANAAARASDRFRIMILGR | soluble
8 | MDDIRCAIIIDPDLPPGVIANTAAVLAMSLGKRHPELVGQDLPDARGQPRQGITTVPIPVLKGGADQLRALRAAASETGLTLVELTSATRFTRSYQEYAAALAATPEEMVEYQGLALCGPGKRVRQLTGSLGLLRLEHHHHHH | not soluble
9 | MDDLVKSSQKALENQVLRDQVSSYEREIMLQNENMEALRSFRHDMKRHFAEISVLASTGEIEQIKNYVSAMENNLVESRRLVDSGNTALDTVLNYMLQRAVDKKIQLNVKVVVPSDLKLSAYDMNIIFGNLLENAIEAQKDVKNPSIDLEINYLMDSLVVEISNRCLQKVIFKGGLPITTKQSVREHGYGLKNVKKVLDKYISTLDFECSDERFTVKILMKI | not soluble
10 | MDDPSITPTEKCRFYLGITLRDDTKARPVPGIMQIPGGRYAVFRHTGSYSSLHKVYRSIYEEWFPKSKYHPQSTFSFEMYMNHPSTTETSELLTEIYIPVIRK | not soluble
11 | MDDSLGVSEVVMIPFMKREVLQQICAILDTDNTWETIAPYMPGIELRDVEGCKRYSSYNQSPSELLLRIWSSKGYSTTHLYQLFAKTKLIRLMRMMRSQVHEKYHYLENKVTNSTSRVSKQMVQPPGSQSASRLKKTEIKESSPSPAAAAASQLSRSNTDDTLRVAIEGTLPVTYCELLEATNGFAVSNVIGKGGYGTVYKGELKGTGGIVAVKRLHSGNDTSQNGSRERLRQSLTELRTLARFRHDNILPIYAYSLEGSEPCLVYQFMSNGSLEDRLLCRKGSVPLTWIQRKEISIGAGRGLGFLHSFGKTPIIHGDIKTANILLDKHMEPKIGDFGLCRDGHVEAEAMEKHPLIASHIKGTLAYLAPEFITSKILTTKLDVYSFGIVLLEIASGQRAYSDSRETRGLVEYCQVNKELAAHRKIPVREIFIDRRAPPLVGDEEKSFLDALIEVGLAGANNDRKVRPTMSQIVEYLCKNSIPPVV | not soluble
12 | MDEEYDAIVLGTGLKECIISGMLSVSGKKVLHIDRNNYYGGESASLTPLEQLYEKFHGPQAKPQQEMGRGRDWNVDLIPKFLMANGPLVKLLIHTGVTRYLEFKSIEASFVVKGGKIYKVPADEMEALATSLMGMFEKRRFKKFLVWVQQFDENKEDTWQGLDPHNSTMQQVYEKFGLDENTADFTGHALALYRDDEHKNQPYAPAVEKIRLYSDSLARYGKSPYLYPLYGLGELPQGFARLSAIYGGTYMLDKPVDEIVMENGKAIGVKCGDEIVRGKQIYCDPSYAKDRVKKTGQVVRAICLLNHPIPNTNDAQSCQIIIPQKQVGRHYDIYISCCSNTNMVTPKGWYLAMVSTTVETANPEAEVLPGLQLLGAIAEKFIQISDVYEPSDLGSESQIFISQSYDATTHFETTCKDVLNMFERGTTKEFDFTNITHLSLNDQE | not soluble
13 | MDEFIIKRAKELQGYIVEKRRDFHMYPELKYEEERTSKIVEEELKKLGYEVVRTAKTGVIGILKGKEDGKTVALRADMDALPIQEENDVPYKSRVPGKMHACGHDAHTAMLLGAAKILAEMKDELQGTVKLIFQPAEEGGLGAKKIVEEGHLDDVDAIFGIHVWAELPSGIIGIKSGPLLASADAFRVLIKGKGGHGAAPHLSIDPIALAVDLVNAYQKIISREVDPLQPAVLSVTSIKAGTTFNVIPESAEILGTIRTFDEEVRDYIVRRMKEITENFANGMRCEGKFELTIEHIPPTINNEKLANFARDVLKVLGEIREPKPTMGAEDFAFYTTKAPGLFIFLGIRNEEKGIIYPHHHPKFNVDEDILWMGAAIHSLLTYHYLSL | soluble
